# From US20210380703A1 (RIGEL PHARMACEUTICALS, published 2021)
# Where a chain is given by its changes, count along the chain named.
# B1: 376_C08 (antibody, V domains shown)
# VH: EVQLLESGGGLVQPGGSLRLSCAASGFTFDSYSMNWVRQAPGKGLEWVAGINYNSGYTGYADSVKGRFTISRDNSKNTLYLQMNSLRAEDTAVYYCARGANWHDTHLDYWGQGTLVTVSS
# VL: not shown
# notes: Group III
# B2: 376_D07 (antibody, V domains shown)
# VH: B1 VH with A49S, S55G, G59S
# VL: not shown
# notes: Group III
# B3: 376_E02 (antibody, V domains shown)
# VH: B1 VH with D30S, S55G, T58K, H106A
# VL: DIQMTQSPSSLSASVGDRVTITCRASQSILSYVNWYQQKPGKAPKLVIYAATSRHSGVPSRFSGSGSGTDFTLTISSLQPEDFATYYCQQSDNTPLTFGGGTKVEIK
# notes: Group III
# B4: 376_E11 (antibody, V domains shown)
# VH: B1 VH with D30S, A49S, S55G, G59S, H106A
# VL: B3 VL with S31T, H55A, D92Y, N93E, T94L
# notes: Group III
# B5: 376_F01 (antibody, V domains shown)
# VH: B1 VH with D30S, S31D, S55G, T58K, G59S, H106A
# VL: not shown
# notes: Group III
# B6: 368_C02 (antibody, V domains shown)
# VH: B1 VH with S31D, G50N, S55G, T58K
# VL: B3 VL with L30S, S31T, V47L, R54L, H55A, D92Y, N93S
# notes: Group III
# B7: 374_A10 (antibody, V domains shown)
# VH: B1 VH with D30S, S33G, N35H, A49S, S55G, G59S, G99A, N101T
# VL: B3 VL with V47L, H55A, D92Y, N93D
# notes: Group II
# B8: 365_A05 (antibody, V domains shown)
# VH: B1 VH with D30S, S33G, N35H, A49S, G50S, S55G, G59S, G99A, N101T
# VL: not shown
# notes: Group II
# B9: 365_B04 (antibody, V domains shown)
# VH: B1 VH with D30S, S33G, N35H, G50S, G59S, G99A, H106A
# VL: B3 VL with S31T, V33L, V47L, N93E, T94S
# notes: Group I
# B10: 365_B08 (antibody, V domains shown)
# VH: B1 VH with S33G, A49S, G50N, T58K, G99A, N101T
# VL: B3 VL with L30V, S31T, V33L, V47L, H55A, D92Y, N93S, T94S
# notes: Group II
# B11: 365_B12 (antibody, V domains shown)
# VH: B1 VH with D30S, S31D, S33G, N35H, A49S, S55G, G59S, G99A, N101T
# VL: B3 VL with L30S, S31T, V47L, A51V, R54L, D92Y, N93D, T94N
# notes: Group II
# B12: 365_C03 (antibody, V domains shown)
# VH: B1 VH with D30S, S33G, N35H, T58K, G99A
# VL: B3 VL with S31T, A51T, R54L, H55A, D92Y
# notes: Group I
# B13: 365_C05 (antibody, V domains shown)
# VH: B1 VH with D30S, S31D, A49S, S55G, T58K
# VL: B3 VL with S31T, V33L, V47L, D92Y, T94S
# notes: Group III
# B14: 365_C06 (antibody, V domains shown)
# VH: B1 VH with D30S, S31D, S33G, N35H, A49S, S55G, G59S, G99A, H106A
# VL: B3 VL with L30S, S31T, V47L, A51V, R54L, H55A, D92Y, N93D, T94N
# notes: Group I
# B15: 365_D03 (antibody, V domains shown)
# VH: B1 VH with S31D, N35H, G50S, S55G, T58K, G59S, G99A, N101T
# VL: B3 VL with L30V, V33L, H55A, D92Y, N93D, T94S
# notes: Group II
# B16: 365_D04 (antibody, V domains shown)
# VH: B1 VH with D30S, S31D, S33G, N35H, S55G, T58K, G59S, G99A, H106A
# VL: B3 VL with L30S, V33L, A51V, H55A, D92Y, N93D, T94L
# notes: Group I
# B17: 365_D08 (antibody, V domains shown)
# VH: B1 VH with N35H, A49S, G50S, S55G, G59S, G99A, N101T
# VL: B3 VL with L30I, S31T, V47L, H55A, D92Y, N93D
# notes: Group II
# B18: 365_E04 (antibody, V domains shown)
# VH: B1 VH with S33G, N35H, G50S, S55G, T58K, G59S, G99A, H106A
# VL: B3 VL with V47L, R54L, H55A, D92Y, N93E, T94L
# notes: Group I
# B19: 365_E06 (antibody, V domains shown)
# VH: B1 VH with S33G, A49S, S55G, G99A, N101T
# VL: B3 VL with S31T, V33L, H55A, D92Y
# notes: Group II
# B20: 365_E12 (antibody, V domains shown)
# VH: B1 VH with D30S, S31D, S33G, A49S, G50N, S55G, H106A
# VL: B3 VL with S31T, V33L, V47L, H55A, D92Y, N93E
# notes: Group III
# B21: 365_F02 (antibody, V domains shown)
# VH: B1 VH with D30S, A49S, S55G, T58K
# VL: B3 VL with S31T, V47L, D92Y, N93D
# notes: Group III
# B22: 365_F03 (antibody, V domains shown)
# VH: B1 VH with A49S, G50S, S55G, G59S
# VL: B3 VL with V33L, V47L, H55A, D92Y, N93D, T94N
# notes: Group III
# B23: 365_F10 (antibody, V domains shown)
# VH: B1 VH with S31D, S33G, N35H, A49S, S55G, G59S, G99A, N101T
# VL: B3 VL with L30V, S31T, V47L, H55A, D92Y, N93E, T94L
# notes: Group II
# B24: 365_F11 (antibody, V domains shown)
# VH: B1 VH with A49S, T58K, G99A
# VL: B3 VL with L30I, V47L, H55A, D92Y
# notes: Group I
# B25: 365_G03 (antibody, V domains shown)
# VH: B1 VH with D30S, S33G, T58K
# VL: B3 VL with L30V, V33L, V47L, H55A, D92Y
# notes: Group III
# B26: 365_G04 (antibody, V domains shown)
# VH: B1 VH with S55G
# VL: B3 VL with L30V, R54L, H55A, D92Y, N93D
# notes: Group III
# B27: 365_G05 (antibody, V domains shown)
# VH: B1 VH with D30S, S33G, A49S, S55G, T58K, H106A
# VL: B3 VL with V33L, R54L, H55A, D92Y, N93E, T94N
# notes: Group III
# B28: 365_G06 (antibody, V domains shown)
# VH: B1 VH with S33G, N35H, S55G, G59S, G99A, N101T
# VL: B3 VL with V33L, V47L, R54L, H55A, N93S
# notes: Group II
# B29: 365_G07 (antibody, V domains shown)
# VH: B1 VH with S33G, N35H, A49S, G50S, S55G, G59S, G99A, H106A
# VL: B3 VL with L30V, V33L, V47L, H55A, D92Y, N93D, T94N
# notes: Group I
# B30: 365_G08 (antibody, V domains shown)
# VH: B1 VH with D30S, S33G, N35H, G50S, S55G, G59S, G99A, N101T
# VL: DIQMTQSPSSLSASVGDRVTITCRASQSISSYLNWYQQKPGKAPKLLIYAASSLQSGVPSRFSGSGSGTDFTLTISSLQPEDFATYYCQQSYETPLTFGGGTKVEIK
# notes: Group II
# B31: 365_G09 (antibody, V domains shown)
# VH: B1 VH with D30S, A49S, S55G, T58K, G59S
# VL: B3 VL with L30I, S31T, V33L, H55A, D92Y, T94S
# notes: Group III
# B32: 365_H07 (antibody, V domains shown)
# VH: B1 VH with A49S, S55G, G59S
# VL: B3 VL with L30S, S31T, V47L, D92Y, N93E, T94N
# notes: Group III
# B33: 365_H08 (antibody, V domains shown)
# VH: B1 VH with D30S, S33G, N35H, G50S, S55G, T58K, G59S, G99A, H106A
# VL: not shown
# notes: Group I
# B34: 369_A03 (antibody, V domains shown)
# VH: B1 VH with D30S, S33G, A49S, G50N, S55G, G99S, H106A
# VL: B3 VL with S31T, V33L, V47L, A51V, S91G, D92Y, N93D, T94L
# Biological target: T1, biotinylated goat anti-human kappa light chain
# T1 construct: positive control of the ELISA
# Test: ELISA, positive control
# How it was run: (§1)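 mAb binding by ELISA; antigens: hu ACVR2A, mu ACVR2A; pos ctrl biotinylated goat anti-hu kappa LC; neg ctrl hu Fc.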
# Also: test concentration or dose not given here.
row,Binder,optical density [OD]
1,B1,3.46
2,B2,3.44
3,B3,3.41
4,B4,3.47
5,B5,3.18
6,B6,3.51

# Biological target: T2, biotinylated goat anti-human kappa light chain
# T2 construct: positive control of the ELISA
# Test: ELISA, positive control
# How it was run: as §1
row,Binder,optical density [OD]
1,B7,3
2,B8,3.45
3,B9,3.12
4,B10,3.04
5,B11,3.43
6,B12,3.5
7,B13,3.53
8,B14,3.45
9,B15,3.53
10,B16,3.52
11,B17,3.61
12,B18,3.54
13,B19,3.29
14,B20,3.52
15,B21,3.4
16,B22,3.57
17,B23,3.65
18,B24,3.5
19,B25,3.54
20,B26,3.29
21,B27,3.35
22,B28,3.34
23,B29,3.47
24,B30,3.5
25,B31,3.67
26,B32,3.43
27,B33,3.59

# Biological target: T3, Goat anti-Human Kappa
# T3 construct: Positive control of the ELISA; also called biotinylated goat anti-human kappa light chain
# Test: ELISA, positive control
# How it was run: as §1
row,Binder,optical density [OD]
1,B34,3.17

# Biological target: T4, human ACVR2A (human, UniProt P27037 20-135, limits assumed)
# T4 construct: also called activin receptor, type II A
# Test: ELISA
# How it was run: as §1
# T4 sequence (P27037 20-135 limits assumed): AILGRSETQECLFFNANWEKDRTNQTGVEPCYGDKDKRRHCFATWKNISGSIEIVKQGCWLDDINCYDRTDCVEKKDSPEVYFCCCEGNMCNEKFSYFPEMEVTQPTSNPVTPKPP
row,Binder,optical density [OD]
1,B7,3.56
2,B8,2.34
3,B9,1.99
4,B10,1.14
5,B11,2.33
6,B12,2.26
7,B13,2.56
8,B14,1.78
9,B15,2.35
10,B16,2.27
11,B17,2.26
12,B18,2.34
13,B19,1.99
14,B20,3.32
15,B21,2.78
16,B22,2.63
17,B23,2.75
18,B24,2.01
19,B25,2.24
20,B26,2.1
21,B27,2.44
22,B28,2.2
23,B29,2.42
24,B30,2.53
25,B31,2.62
26,B32,2.51
27,B33,2.67

# Biological target: mouse ACVR2A (mouse, UniProt P27038 20-135, limits assumed)
# Test: ELISA
# How it was run: as §1
# Target sequence in this assay (P27038 20-135 limits assumed): as the sequence (P27037 20-135 limits assumed) above, with K20R, V73I counted along it
row,Binder,optical density [OD]
1,B7,3.59
2,B8,2.23
3,B9,2.18
4,B10,1.26
5,B11,2.29
6,B12,2.65
7,B13,2.81
8,B14,2.23
9,B15,2.48
10,B16,2.39
11,B17,2.35
12,B18,2.4
13,B19,2.06
14,B20,3.28
15,B21,3.05
16,B22,2.99
17,B23,2.79
18,B24,2.14
19,B25,2.54
20,B26,2.48
21,B27,2.54
22,B28,2.02
23,B29,2.6
24,B30,2.58
25,B31,2.93
26,B32,2.75
27,B33,2.61

# Biological target: T5, Human ACVR2A (human, UniProt P27037 20-135, limits assumed)
# T5 construct: also called activin receptor, type II A
# Test: ELISA
# How it was run: as §1
# T5 sequence (P27037 20-135 limits assumed): as the sequence (P27037 20-135 limits assumed) above
row,Binder,optical density [OD]
1,B34,0.451

# Biological target: T6, mouse ACVR2A (mouse, UniProt P27038 20-135, limits assumed)
# T6 construct: coated antigen of the initial ELISA
# Test: ELISA
# How it was run: as §1
# T6 sequence (P27038 20-135 limits assumed): as the sequence (P27037 20-135 limits assumed) above, with K20R, V73I counted along it
row,Binder,optical density [OD]
1,B1,3.63
2,B2,3.44
3,B3,3.38
4,B4,3.65
5,B5,3.02
6,B6,1.49

# Biological target: T7, human ACVR2A (human, UniProt P27037 20-135, limits assumed)
# T7 construct: coated antigen of the initial ELISA; also called activin receptor, type II A
# Test: ELISA
# How it was run: as §1
# T7 sequence (P27037 20-135 limits assumed): as the sequence (P27037 20-135 limits assumed) above
row,Binder,optical density [OD]
1,B1,3.61
2,B2,3.38
3,B3,3.3
4,B4,3.68
5,B5,2.77
6,B6,1.38
